Results taken from article PMC6615629, “Hsp70-nucleotide exchange factor (NEF) Fes1 has non-NEF roles in degradation of gluconeogenic enzymes and cell wall integrity” (PLoS Genetics, 2019).
Where a chain is given by its changes, count along the chain named.

Experiments:
[1] = target: T1, His6-Fbp1 P2A (yeast (S. cerevisiae), UniProt P09201 1-348, P2A); test: pull-down; His6-Fbp1 (wild type or mutant) pulled down on Talon metal affinity resin; reactions with two or all three proteins; 6 μg each of His6-Fbp1 (1.6 μM), Hsp70 (0.9 μM) and GST-Fes1 (1.09 μM), with or without ATP, ADP or AMP (2.5 mM); 50 mM Tris-HCl pH 7.5, 150 mM NaCl, 2% glycerol, 5 mM MgCl2; 30 min at 4°C; washed with 5 mM imidazole, eluted with 250 mM imidazole; stained SDS-PAGE gels, bands quantified …; conditions: both partners purified
T1 construct: Fbp1, yeast gluconeogenic enzyme, P2A; the initiator methionine is counted as residue 1; source: E. coli expression, purified; not shown: His6, N-terminal, kept
T1 sequence (looked up): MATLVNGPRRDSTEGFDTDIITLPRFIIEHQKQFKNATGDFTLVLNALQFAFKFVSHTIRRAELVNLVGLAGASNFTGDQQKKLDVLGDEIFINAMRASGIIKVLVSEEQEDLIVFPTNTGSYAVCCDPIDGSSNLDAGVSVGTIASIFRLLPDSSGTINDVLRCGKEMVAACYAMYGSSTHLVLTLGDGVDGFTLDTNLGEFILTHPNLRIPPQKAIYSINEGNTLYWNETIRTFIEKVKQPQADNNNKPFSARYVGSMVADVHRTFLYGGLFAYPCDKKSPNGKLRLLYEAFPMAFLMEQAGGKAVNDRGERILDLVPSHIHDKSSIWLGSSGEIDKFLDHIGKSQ

[2] = target: T2, His6-Fbp1^P2A,S12A,T13A (yeast (S. cerevisiae), UniProt P09201 1-348, P2A | S12A | T13A); test: as above; conditions: both partners purified
T2 construct: Fbp1, yeast gluconeogenic enzyme, P2A,S12A,T13A; the initiator methionine is counted as residue 1; source: E. coli expression, purified; not shown: His6, N-terminal, kept
T2 sequence (looked up): T1 sequence (looked up) with S12A, T13A

B1: GST-Fes1 (natural protein, yeast (S. cerevisiae), UniProt P38260 1-290, looked up)
chain: MEKLLQWSIANSQGDKEAMARAGQPDPKLLQQLFGGGGPDDPTLMKESMAVIMNPEVDLETKLVAFDNFEMLIENLDNANNIENLKLWEPLLDVLVQTKDEELRAAALSIIGTAVQNNLDSQNNFMKYDNGLRSLIEIASDKTKPLDVRTKAFYALSNLIRNHKDISEKFFKLNGLDCIAPVLSDNTAKPKLKMRAIALLTAYLSSVKIDENIISVLRKDGVIESTIECLSDESNLNIIDRVLSFLSHLISSGIKFNEQELHKLNEGYKHIEPLKDRLNEDDYLAVKYVL
notes: Fes1, yeast Hsp70 nucleotide exchange factor; also called wild type GST-Fes1; source: E. coli expression, purified as described [15]; not shown: GST, N-terminal, kept
**Q.** Does B1 bind [1]?
**A.** Result: binds

**Q.** Does B1 bind [2]?
**A.** Result: binds
